From patent publication US5981262

Molecular target: phosphopeptide of SEQ ID NO: 32, containing the PI3K ligand pY.V.P.M.L. (SEQ ID NO: 31)
Experiment: SPR (BIAcore); phosphopeptide immobilized via its C-terminal lysine, SH2 peptide injected at 0.5, 0.67, 1.0, 2.0 and 4.0 uM

N-terminal SH2 peptide of the PI3K p85
Ka (binding affinity, printed in nM): 160 nM
